This note sets out measurements from paper PMC10858199 (2024).

The assay addresses Amyloid-beta aggregates (Homo sapiens, UniProt P05067). In words: SPR.

B1: CR4 I-domain (protein)
chain: RNFATMMNFVRAVISQFQRPSTQFSLMQFSNKFQTHFTFEEFRRSSNPLSLLASVHQLQGFTYTATAIQNVVHRLFHASYGARRDAAKILIVITDGKKEGDSLDYKDVIPMADAAGIIRYAIGVGLAFQNRNSWKELNDIASKPSQEHIFKVEDFDALKDIQNQLKEKIFAIEGT
As for B1, the Kd is roughly 1000 nM.
